{"source": "the DeepSol protein solubility set"}
{"assay": "soluble on expression in E. coli; label from the status in PepcDB or PDB records"}
{"sequence": "MSKRTTPTYPVEVIRSDRRTRTVSARLVGGKILIRIPASMSKKDEKKFVAEMVDKVRTKTQSSAPTDEALLHRAQHLNRTVLENRATIGSIRWVTNQTRRWGSCSQTTNDIRISHRLQGVPDYVLDAVIIHEMVHTFIEGGHSPEFWQWADKAPKAERAKGYLEAWQRMGDVGLEHHHHHH", "soluble on expression in E. coli": "not soluble"}
{"sequence": "MSKTHLTEQKFSDFALHPKVVEALEKKGFHNCTPIQALALPLTLAGRDVAGQAQTGTGKTMAFLTSTFHYLLSHPAIADRKVNQPRALIMAPTRELAVQIHADAEPLAEATGLKLGLAYGGDGYDKQLKVLESGVDILIGTTGRLIDYAKQNHINLGAIQVVVLDEADRMYDLGFIKDIRWLFRRMPPANQRLNMLFSATLSYRVRELAFEQMNNAEYIEVEPEQKTGHRIKEELFYPSNEEKMRLLQTLIEEEWPDRAIIFANTKHRCEEIWGHLAADGHRVGLLTGDVAQKKRLRILDEFTRGDLDILVATDVAARGLHIPAVTHVFNYDLPDDCEDYVHRIGRTGRAGASGHSISLACEEYALNLPAIETYIGHSIPVSKYNPDALMTDLPKPLRLTRPRTGNGPRRTGAPRNRRRSG", "soluble on expression in E. coli": "soluble"}
{"sequence": "MSLAAEGKAIAKVNDLVIFVPYVVPGDVVDLQIKRKKNKYAEAEAVKFHELSPVRAVPFCQHYGVCGGCKWQVLPYSEQIRYKQKQVEDNLRRIGKIELPEISPILGSAKTEFYRNKLEFTFSNKRWLTNDEVRQDVKYDQMNAVGFHIPGAFDKVLAIEKCWLQDDISNRIRNAVRDYAYEHDYSFINLRTQEGMLRNLIIRTSSTGELMVIVICKITEDHEMELFKQLLQFIADSFPEITSLLYIINNKCNDTINDLDVHVFKGKDHMFEEMEGLRFKVGPKSFYQTNSEQAYNLYKIAREFAGLTGKELVYDLYTGTGTIANFVSRQARQVIGIEYVPEAIEDAKVNAEINEIKNALFYAGDMKDMLTQEFINQHGRPDVIITDPPRAGMHQDVVDVILFAEPKRIVYVSCNPATQARDLQLLDGKYKVKAVQPVDMFPHTHHVENVVLLELREGHHHHHH", "soluble on expression in E. coli": "soluble"}
{"sequence": "MSLAAHYLDFERPIADLESKIEELSRLSETAGPGAFDTEIQALRDRAQELRKEAYANLDAWQKTMVARHPQRPHLRDYVAGLIDEFVELRGDRKFADDQAIVGGLGRFRGQPVVVMGHEKGHDTTTRLKHNFGMARPEGYRKAVRLMDMAERFNLPVITFVDTAGAYPGLGAEERGQAEAIARSTERCLTLGVPMVATIVGEGGSGGAIALAGANRVLILEHSIYSVISPEGAASILWRDGARAKDAATQMRITAQDLIKLGIVDRIVEEPAGGAHSDTEAAIQAVGDAVEDELKAMAAMSPAELKKQRSDRFYAIGREGHHHHHH", "soluble on expression in E. coli": "soluble"}
{"sequence": "MSLAANMYRVGDYVYFENSSSNPYLVRRIEELNKTANGNVEAKVVCLFRRRDISSSLNSLADSNAREFEEESKQPGVSEQQRHQLKHRELFLSRQFESLPATHIRGKCSVTLLNETDILSQYLEKEDCFFYSLVFDPVQKTLLADQGEIRVGCKYQAEIPDRLVEGESDNRNQQKMEMKVWDPDNPLTDRQIDQFLVVARAVGTFARALDCSSSIRQPSLHMSAAAASRDITLFHAMDTLQRNGYDLAKAMSTEGHHHHHH", "soluble on expression in E. coli": "not soluble"}
{"sequence": "MSLAATALLEAGLARVLFYPTLLYTLFRGKVPGRAHRDWYHRIDPTVLLGALPLRSLTRQLVQDENVRGVITMNEEYETRFLCNSSQEWKRLGVEQLRLSTVDMTGIPTLDNLQKGVQFALKYQSLGQCVYVHCKAGRSRSATMVAAYLIQVHKWSPEEAVRAIAKIRSYIHIRPGQLDVLKEFHKQITARATKDGTFVISKTEGHHHHHH", "soluble on expression in E. coli": "soluble"}
{"sequence": "MSLADFLRHRREALRPEDVGLSPGARRRARGLRREEVAALALMSTDYYTRLEQRRGPQPSERMLDSLARALRLTRAERDYLYRVAGHNAPASLSDPSPVAPALLRVLDRLDDTPALILTELGETLVQNRMAVALFGDASRHTGLARSAVYRWFTDPSERSVYPESDWGRQSRAQVANLRAAYGMRGARSHAGALVRILQQSNEEFAELWERHEVAQRFEDHKTLIHPEVGAIEVDCQALFTEDQSQTLLVLTAPPRTESHEKLQLLAVLGLHRFTEAEDQVREGHHHHHH", "soluble on expression in E. coli": "not soluble"}
{"sequence": "MSLADIGSDHAYLPCYAVLNHKASGAIAGEITDGPFLSAKRQVEKSGLNSHISVRQGDGLEVIKKGEADAITIAGMGGALIAHILEAGKDKLTGKERLILQPNIHAVHIREWLYKERYALIDEVILEEDGKCYEVLVAEAGDRDAAYDGISLSAGMLVGPFLAKEKNAVFLKKWTQELQHTQSIYEQISQAADTEQNKQKLKELADRMELLKEVIDHGEGHHHHHH", "soluble on expression in E. coli": "soluble"}
{"sequence": "MSLADIPYGTDYPDAPWIDRDGHVLIDDGGKPTQVHRGQARIAYRLAERYQDKLLHVAGIGWHSWDGRRWAADDRGEAKRAVLAELRQALSDSLNDKELRADVRKCESASGVAGVLDLAAALVPFAATVADLDSDPHLLNVANGTLDLHTLKLRPHAPADRITKICRGAYQSDTESPLWQAFLTRVLPDEGVRGFVQRLAGVGLLGTVREHVLAILIGVGANGKSVFDKAIRYALGDYACTAEPDLFMHRENAHPTGEMDLRGVRWVAVSESEKDRRLAESTIKRLTGGDTIRARKMRQDFVEFTPSHTPLLITNHLPRVPGDDTAIWRRIRVVPFEVVIPADEQDRELDARLQLEADSILSWAVAGWSDYQRIGLSQPDAVLAATSNYREDSDTIKRFIDDECVTSSPVLKATTTHLFEAWQRWRVQEGVPEISRKAFGQSLDTHGYPVTEGHHHHHH", "soluble on expression in E. coli": "not soluble"}
{"sequence": "MSLAEASTVETEFAARVQEFYHDQSDPIQLVVAFKALCAVKALLAAANLEEHGAKSSYFQEEFENWDLETKLWHLVEVLYLYRLAENEEVIAENQYSSISVLQENVLRQNPKLKELLIILGWLQTNSKGVDVPGSLSNTSKWSNTRQALANKDLNVLTTHGHTGETDTKLQNIDPDAPIRQACPVMAEDDLRDSQVFRTIYQLILSGQLQEAIELASSTGNHTLALILLGGTQDFIDPVLDKDFCETTMTDLIVPNKPSGAKHKLLWKQAVFKLSHQLGINKYERLIYDYLSGGDISGGLEVVGDSWENLLIIYLNKICLHVLLNALNSNESTTSIPAPPAESIDQVLNLISKGSNGAAQQSKHPLRIVMGSVMISEIGALISGVLKSLNNNFTTQKVWEEDYLVRVMAHLGLFAHAVGSQVSANDLTQLLTLYVQRLSARGFTDLVPLYLSFIPDDSDAREYYSKFLSSITDPSERTKQLQLVRKLGIDSNGDEERMANVLRRTVERVMADTEAEGHHHHHH", "soluble on expression in E. coli": "soluble"}
{"sequence": "MSLAEQIEFDQAHLTLQEITEALDNGRFVHVRRQLQDMEPEDIAHLLEASPRKAREVLWQLTDPEDYGEILDELNEDVKDALVSKMAPEKLAEATEGMDIDDVAYVLRSLPDDVSREVLSQMDAADRMRVETALSYPEDTAGGLMNTDVITIRADVDVDVVLRYLRMKGELPEATDALYVIDDESKLIGHLSLVTLLTTQPDVPVSEVMDDADEAIKVDMKDSDIANLFERRNWVSAPVVDENQHLVGRITIDDVVDIIREDAEHSMMSMAGMDDDEDTFAPEGHHHHHH", "soluble on expression in E. coli": "soluble"}
{"sequence": "MSLAEVSDLAKAIRMEKNLVKEYRDTIGGYFRRFHPEHFVLSRDEFAVEGRKITIESVLAYAFLRADLDFVSAQARKVDPEDMKGSDDAPVNNDEVFGHPSTPSGHGIGGPARFKGGSTASVALISTPTPAPFWHPAAQSTLLCAHVGDSRILLCDTATGLAQPLTSDHHPSSPTESRRLRRYAPAGSMVSGDSFGEERIAGLANSRAFGDMKSKRIGVSAEPELTRVEMGPAQYSFLVLMTDGISGTLSDQEIVDVVKEARTPEDGARNIVKYATEVSNDGDNATCQVVRLGGWERRSEGEGHHHHHH", "soluble on expression in E. coli": "not soluble"}
{"sequence": "MSLAGILGFPVAPFNTQGTLEEEALFQNIEFLLNEGLEAIFIACGSGEFQSLSQKEYEQMVEVAVSAAGGKVPVYTGVGGNLSTALDWAQLSEKKGADGYLILPPYLVHGEQEGLYQYAKTIIESTDLNAILYQRDNAVLSVEQIKRLTECEQLVGVKDGVGNMDLNINLVYTIGDRLGWLNGMPMAEVTMPAYLPIGFHSYSSAISNYIPHISRMFYDALKNGNDELVKELYRHVILPINDIRKQRKGYAVSLIKAGMEIMGLNVRNTARPPVGPVEKDHYQQLEAILKQPADRFPKKEGHHHHHH", "soluble on expression in E. coli": "not soluble"}
